The results in this text go back to patent publication US20250270300A1 (UNIVERSITY COURT OF THE UNIVERSITY OF ABERDEEN, published 2025).

Test [1] deals with T1, human serum albumin (human, UniProt P02768 25-609).
T1 construct: also called HSA
The test can be described thus: ELISA. A general note: In an ELISA, binding on a coated surface is turned into a signal by an enzyme label.

The target in test [2] is T2, Recombinant Hyr1 N-terminus fragment (Candida albicans, UniProt Q5AL03 63-350).
T2 construct: the last 288 residues are Hyr1 63-350; Expressed in HEK293F cells, 32 kDa; also called recombinant N-terminus of the Hyr1 protein; purified Hyr1 protein
T2 sequence: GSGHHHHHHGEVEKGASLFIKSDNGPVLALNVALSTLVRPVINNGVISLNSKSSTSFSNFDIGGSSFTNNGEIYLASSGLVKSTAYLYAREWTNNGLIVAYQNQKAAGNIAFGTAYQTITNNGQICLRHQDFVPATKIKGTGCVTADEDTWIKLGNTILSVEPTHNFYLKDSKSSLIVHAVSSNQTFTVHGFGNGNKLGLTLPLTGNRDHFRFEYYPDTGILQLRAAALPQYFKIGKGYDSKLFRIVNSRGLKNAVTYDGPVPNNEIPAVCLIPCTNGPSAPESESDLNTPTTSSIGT
Briefly: ELISA, plate coated with recombinant Hyr1 N-terminus, titrated mAb.

T1 sequence (P02768 25-609 limits assumed): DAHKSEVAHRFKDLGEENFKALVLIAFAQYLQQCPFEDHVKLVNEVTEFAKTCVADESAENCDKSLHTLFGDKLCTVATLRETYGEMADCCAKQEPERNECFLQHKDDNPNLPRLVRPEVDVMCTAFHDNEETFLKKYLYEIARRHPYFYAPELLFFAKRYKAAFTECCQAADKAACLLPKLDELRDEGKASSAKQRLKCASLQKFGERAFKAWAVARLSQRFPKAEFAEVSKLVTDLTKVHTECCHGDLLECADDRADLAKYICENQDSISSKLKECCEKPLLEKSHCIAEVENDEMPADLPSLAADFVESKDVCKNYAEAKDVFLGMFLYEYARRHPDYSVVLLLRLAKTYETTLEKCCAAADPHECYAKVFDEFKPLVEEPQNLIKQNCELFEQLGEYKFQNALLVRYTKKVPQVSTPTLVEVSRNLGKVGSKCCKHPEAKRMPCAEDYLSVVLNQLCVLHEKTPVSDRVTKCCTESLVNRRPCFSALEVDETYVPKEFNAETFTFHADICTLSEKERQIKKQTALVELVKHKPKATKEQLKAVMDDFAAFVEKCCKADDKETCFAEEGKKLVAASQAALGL

B1: AB123 (antibody, human IgG1, V domains shown)
VH: EVQLLESGGGVVQPGRSLRLSCAASGFTFSNYGMHWVRQAPGKGLEWVAVVWFDGSYKYYTDSVKGRFTISRDNSKSTLYLQMNSLRAEDTAVYYCVSPIMTSAFDIWGPGTMVSVSS
VL: QLVLTQPPSASGSPGQSVTISCTGTSSDVGGSNFVSWYQHHPGKAPKLMIYEVSQRPSGVPDRFSGSKSGNTASLTVSGLQADDEADYYCSSYAGSVVLFGGGTKLTVL
notes: Tested as purified recombinant whole human IgG1 (Expi293F); also called 06-AB-123; anti-Hyr1 mAb
Usually EC50 stands for the midpoint of the concentration-response curve. For B1, the binding result in test [1] is “no binding”. In addition, the concentration giving a half-maximal response (EC50) in test [2] was found to be 0.0533 µg/mL.

B2: AB124 (antibody, human IgG1, V domains shown)
VH: EVQLVESGGGVVQPGRSLRLSCAASGFTFSNYGMHWVRQAPGKGLEWVAVVWLDGSYKYYTGSVKGRFTISRDNSKSTLYLQMNSLRAEDTAAYYCVSPIMTSAFDIWGPGTMVTVSS
VL: QLVLTQPPSASGSPGQSVTISCTGTSSDVGGSNFVSWYQHHPGKAPKLMIYEVSQRPSGVPDRFSGSKSGNTASLTVSGLQADDEADYYCSSYAGSVVLFGGGTKLTVL
notes: Tested as purified recombinant whole human IgG1 (Expi293F); also called 06-AB-124; anti-Hyr1 mAb
As to B2, the binding result in test [1] was “no binding”. In addition, in test [2], the concentration giving a half-maximal response (EC50) came to 1.05 µg/mL.

B3: AB127 (antibody, human IgG1, V domains shown)
VH: EVQLVESGGGLVNPGGSLRLSCAASGFTFSNYAMNWVRQAPGKGLEWVSSISRSGDYIYYADSLKGRSTISRDNAKNSLFLQMNSLRAEDSAVYYCARDWGRLGYCSSNNCPDAFDVWGQGTRVSVSS
VL: EIVMTQSPSFVSASVGDRVTITCRASQDISNWLVWYQQKPGKAPKLLIYASSNLQSGVPSRFSGSGSGTDFALTIISLQPEDFATYYCQQENSFPYTFGQGTKLEIK
notes: Tested as purified recombinant whole human IgG1 (Expi293F); also called 06-AB-127; anti-whole cell mAb
For the molecule B3, the binding result in test [1] is “no binding”.

B4: AB133 (antibody, human IgG1, V domains shown)
VH: EVQLVESGGGLVQPGGSLRVSCAASGFTLNTYWMHWVRQAPGKGLVWVSRINEDGTTISYADSVRGRFTISRDNAENTLYLQMHSLRAEDTGVYYCARDFTGPFDSWGQGTLVSVSS
VL: QSVLTQPPSVSGTPGQRVTISCSGSNSNAGRDYVSWYQQVPGTAPKLLIYKNNQRPSGVPDRFSGSKSGTSASLAISGLRSEDDGDYYCIVWDGSLSGYVFGTGTKVTVL
notes: Tested as purified recombinant whole human IgG1 (Expi293F); also called 06-AB-133; anti-whole cell mAb
B4: in test [1], the binding result is “no binding”.

B5: AB140 (antibody, human IgG1, V domains shown)
VH: EVQLVESGGGLVQPGGSLRVSCAASGFTLNTYWMHWVRQAPGKGLVWVSRINEDGTTISYADSVRGRFTISRDNAENTLYLQMHSLRAEDTGVYYCARDFTGPFDSWGQGTLVSVSS
VL: QLVLTQPPSVSGTPGQRVTISCSGSNSNVGRDYVSWYQQVPGTAPKLLIYKNNQRPSGVPDRFSGSKSGTSASLAISGLRSEDDGDYYCIVWDGSLSGYVFGTGTKVTVL
notes: Tested as purified recombinant whole human IgG1 (Expi293F); also called 06-AB-140; anti-whole cell mAb
Regarding B5, the binding result in test [1] is recorded as “no binding”.

B6: AB139 (antibody, human IgG1, V domains shown)
VH: EVQLVESGGGLVQPGGSLRVSCAASGFTLNTYWMHWVRQAPGKGLVWVSRINEDGTTISYADSVRGRFTISRDNAENTLYLQMHSLRAEDTGVYYCARDFTGPFDSWGQGTLVSVSS
VL: QSVLTQPPSVSGTPGQRVTISCSGSNSNVGRDYVSWYQQVPGTAPKLLIYKNNRRPSGVPDRFSGSKSGTSASLAISGLRSEDDGDYYCIVWDGSLSGYVFGTGTKVTVL
notes: Tested as purified recombinant whole human IgG1 (Expi293F); also called 06-AB-139; anti-whole cell mAb
Take B6: in test [1], the binding result was “no binding”.

B7: AB122 (antibody, human IgG1, V domains shown)
VH: EVQLVQSGGGLAQPGRSLRLSCAASGFGFDDFAMHWVRQPPGKGLEWVSGLTWNGGSIDYAGSVRGRFTISRDNAKNSLFLQMNSLRAEDTALYYCAKGLSGGTMAPFDIWGQGTMVSVSS
VL: QAGLTQPPSVSVAPGQTATIPCGGNNIGSKHVHWYQQKPGQAPVAVVYDDSDRPSGVPERFSGSNSGNTATLTISSVEAGDEADYYCQVWDRSSDHFWLFGGGTRLTVL
notes: Tested as purified recombinant whole human IgG1 (Expi293F); also called 06-AB-122; anti-Hyr1 mAb
On to B7, for which the binding result in test [1] is reported as “no binding”. The EC50 in test [2] is 0.0496 µg/mL.

B8: AB131 (antibody, human IgG1, V domains shown)
VH: QVQLVQSGGGVVQPGGSLRLSCAASPFTFKTSILHWVRQAPGKGLEWVSAMSYDGFSKYYADSVKGRLTISRDSSTNTLYLEMNSLRFEDTALYFCAREAYTSGRAGCFNPWGQGVLVSVSS
VL: DIVMTQTPSTQSASVGDRVTITCRASQSISIWLAWYQQKPGKAPKLLIHDASTLESGVPSRFSGSGSGTEFTLTISSLQPDDSATYYCQRYNDYPPTFGPGTKVEIK
notes: Tested as purified recombinant whole human IgG1 (Expi293F); also called 06-AB-131; anti-whole cell mAb
As to B8, the binding result in test [1] is “no binding”.

B9: AB132 (antibody, human IgG1, V domains shown)
VH: QVLKESGGGVVQPGGSLRLSCAASPFTFETSILHWVRQAPGKGLEWVSAMSYDGFSKYYADSVKGRLTISRDSSTNTLYLEMNSLRFEDTALYFCAREAYTSGRAGCFDPWGQGVLVSVSS
VL: EIVMTQSPSTQSASVGDRVTITCRASQSISIWLAWYQQKPGKAPKLLIHDASTLESGVPSRFSGSGSGTEFTLTISSLQPDDSATYYCQRYNDYPPTFGPGTKVEIK
notes: Tested as purified recombinant whole human IgG1 (Expi293F); also called 06-AB-132; anti-whole cell mAb
Turning to B9, in test [1], the binding result is “no binding”.

B10: AB119 (antibody, human IgG1, V domains shown)
VH: QVTLKESGGGLVQPGGSLRLSCVASGFTFRTYWMHWVRQDPGKGLVWVSRLDEVGRLTSYADSVNGRFTISRDNAKNILYLQMNSLRAEDTGVYYCARDLSGSADYWGQGTLVTVSS
VL: DVVLTQSPLFLPVTPGEPASISCRSSQSLLHSRGHTSLHWYLQKPGQSPHLLIYSVFNRASGVPDRFSGSGSGTDFTLKISRVEAEDVGVYYCMQALEPPYTFGQGTKLEIK
notes: Tested as purified recombinant whole human IgG1 (Expi293F); also called 06-AB-119; anti-whole cell mAb
For B10, the binding result in test [1] is “no binding”.

B11: AB120 (antibody, human IgG1, V domains shown)
VH: EVQLVQSGGGLVQPGGSLGLSCAASGFIFTSYAMTWVRQAPGKGLEWVSVITGNVGTSYYADSVKGRFTISRDNSKKTVSLQMNSLRAEDTAIYYCVKTRYDFSSGYYFDDWGQGTLVSVSS
VL: DIVMTQSPSSVSASVGDKVTITCRASQGISRWLAWYQQKPGEAPELLIYAASSLQSGVPSRFSGSGSGTDFTLTISSLQPEDFATYYCQQANSFPITFGQGTRLQIK
notes: Tested as purified recombinant whole human IgG1 (Expi293F); also called 06-AB-120; anti-Hyr1 mAb
For the molecule B11, in test [1], the binding result is “no binding”. For the same molecule, in test [2], the 50% effective concentration (EC50) worked out at 0.104 µg/mL.

B12: AB134 (antibody, human IgG1, V domains shown)
VH: QLQLQESGGGLVQPGGSLRLSCVVSGFTFSSHAMSWVRQAPGKGLEWVSSISISGGDTFYADSVRGRFTIFRDNSKNTVYLQMNSLRAEDTAVYYCATETSPNDYWGQGTLVSVSS
VL: SYELTQPSSLTVSPGGTVTLTCGLSSGAVTSGHYPYWFQQKPGQAPKTLIFDTSRKHSWTPARFSGSLLGGKAALTLSGAQPEDDADYYCLLACNGACVFGGGTKLTVL
notes: Tested as purified recombinant whole human IgG1 (Expi293F); also called 06-AB-134; anti-whole cell mAb
Regarding B12, the binding result in test [1] is listed as “no binding”.

B13: AB135 (antibody, human IgG1, V domains shown)
VH: EVQLVETGGGLVQPGGSLRLSCVVSGFTFSSHAMSWVRQAPGKGLEWVSSISISGGDTFYADSVRGRFTIFRDNSKNTVYLQMNSLRAEDTAVYYCATETSPNDYWGQGTLVTVSS
VL: SYELTQPSSLTVSPGGTVTLTCGLSSGAVTSGHYPYWFQQKPGQAPKTLIFDTSRKHSWTPARFSGSLLGGKAALTLSGAQPEDDADYYCLLACNGACVFGGGTKLTVL
notes: Tested as purified recombinant whole human IgG1 (Expi293F); also called 06-AB-135; anti-whole cell mAb
For B13, in test [1], the binding result is listed as “no binding”.

B14: AB126 (antibody, human IgG1, V domains shown)
VH: EVQLVESGGGLAQPGGSLRLSCEASGFHLAGNAMAWVRQAPGKGLEWVAAIGGSDDRTDYADSVKGRFTISRDKSKNTLSLQMNSLRVEDTAVYYCAKDIWRWAFDYWGQGTLVSVSS
VL: DIVMTQSPATLSLSPGERATLSCWASQYINTYVNWYQHKPGQAPRLLIYDASKRATGIPARFSGSGSGTDFTLTISSLEPEDFAVYYCQQGSNWPLTFGQGTRLEIK
notes: Tested as purified recombinant whole human IgG1 (Expi293F); also called 06-AB-126; anti-whole cell mAb
B14: the binding result in test [1] is “no binding”.

B15: AB129 (antibody, human IgG1, V domains shown)
VH: QVQLVESGGGLVQPGGSLRLSCSASQFILSNYWVHWVRQVPGEGLVWVSRINEDGSVTSYADSVKGRFTISRDNAKNTLYLQMNSLRVDDTAVYYCVRDLCGERDDWGQGTLVTVSS
VL: VIWMTQSPLSLPVTPGEAASISCRSSQSLLHRNGRTFFAWYLQKPGQSPQILIYLGSNRAFGVPDRFSGSGSGTDFTLKISRVEAEDVGIYYCMQGLQTPYTFGQGTKLEIK
notes: Tested as purified recombinant whole human IgG1 (Expi293F); also called 06-AB-129; anti-whole cell mAb
Consider B15, for which the binding result in test [1] was “no binding”.

B16: AB130 (antibody, human IgG1, V domains shown)
VH: QLQLQESGGGLVQPGGSLRLSCSASQFILSNYWVHWVRQVPGEGLVWVSRINEDGSVTSYADSVKGRFTISRDNAKNTLYLQMNSLRVDDTAVYYCVRDLCWERDDWGQGTLVSVSS
VL: VIWMTQSPLSLPVTPGEAASISCRSSQSLLHRNGRTFFAWYLQKPGQSPQILIYLGSNRAFGVPDRFSGSGSGTDFTLKISRVEAEDVGIYYCMQGLQTPYTFGQGTKLEIK
notes: Tested as purified recombinant whole human IgG1 (Expi293F); also called 06-AB-130; anti-whole cell mAb
As for B16, the binding result in test [1] is given as “no binding”.

B17: AB118 (antibody, human IgG1, V domains shown)
VH: EVQLVESGGGLVQPGGSLRLSCSASQFILSNYWVHWVRQVPGEGLVWVSRINEDGSVTSYADSVKGRFTISRDNAKNTLYLQMNSLRVDDTAVYYCVRDLCGERDDWGQGTLVSVSS
VL: DIVMTQSPLSLPVTPGEAASISCRSSQSLLHRNGKTFFAWYLQKPGQSPQILIYLGSNRASGVPDRFSGSGSGTDFTLKISRVEAEDVGIYYCMQGLQTPYTFGQGTKLEIK
notes: Tested as purified recombinant whole human IgG1 (Expi293F); also called 06-AB-118; anti-whole cell mAb
In the case of B17, the binding result in test [1] is “no binding”.

B18: AB121 (antibody, human IgG1, V domains shown)
VH: EVQLVESGGTLVQPGGSLRLSCAASGFTFSDYWMNWVRQAPGKGLEWVANIKQDGSEKYYVDSLRGRVTISRDNAQNSVFLQMHSLSVEDTAVYYCARDGYTFGPATTELDHWGRGTLVSVSS
VL: QLVLTQPPSVSVSPGQTASITCSGDELRNKYTSWYQQKSGQSPVLVIYQDNNRPSGIPERFSGSQSGDTATLTISGTQAVDEADYYCQAWVSQTLVFGGGTKLTVL
notes: Tested as purified recombinant whole human IgG1 (Expi293F); also called 06-AB-121; anti-Hyr1 mAb
With B18, the binding result in test [1] is listed as “no binding”. Moreover, the EC50 in test [2] was determined as 0.0765 µg/mL.
